Values quoted from earlier work in paper PMC11070850.

Molecular target: mucin 1 (UniProt P15941)
Conditions: 10 mM MOPS, 100 mM NaNO3, pH 7.6, room temperature, 60 min (aptamer + mucin 1 + DNA nanospheres); then CuSO4 50 min and calcein 2 min

Chain of mucin 1 (P15941 24-1158): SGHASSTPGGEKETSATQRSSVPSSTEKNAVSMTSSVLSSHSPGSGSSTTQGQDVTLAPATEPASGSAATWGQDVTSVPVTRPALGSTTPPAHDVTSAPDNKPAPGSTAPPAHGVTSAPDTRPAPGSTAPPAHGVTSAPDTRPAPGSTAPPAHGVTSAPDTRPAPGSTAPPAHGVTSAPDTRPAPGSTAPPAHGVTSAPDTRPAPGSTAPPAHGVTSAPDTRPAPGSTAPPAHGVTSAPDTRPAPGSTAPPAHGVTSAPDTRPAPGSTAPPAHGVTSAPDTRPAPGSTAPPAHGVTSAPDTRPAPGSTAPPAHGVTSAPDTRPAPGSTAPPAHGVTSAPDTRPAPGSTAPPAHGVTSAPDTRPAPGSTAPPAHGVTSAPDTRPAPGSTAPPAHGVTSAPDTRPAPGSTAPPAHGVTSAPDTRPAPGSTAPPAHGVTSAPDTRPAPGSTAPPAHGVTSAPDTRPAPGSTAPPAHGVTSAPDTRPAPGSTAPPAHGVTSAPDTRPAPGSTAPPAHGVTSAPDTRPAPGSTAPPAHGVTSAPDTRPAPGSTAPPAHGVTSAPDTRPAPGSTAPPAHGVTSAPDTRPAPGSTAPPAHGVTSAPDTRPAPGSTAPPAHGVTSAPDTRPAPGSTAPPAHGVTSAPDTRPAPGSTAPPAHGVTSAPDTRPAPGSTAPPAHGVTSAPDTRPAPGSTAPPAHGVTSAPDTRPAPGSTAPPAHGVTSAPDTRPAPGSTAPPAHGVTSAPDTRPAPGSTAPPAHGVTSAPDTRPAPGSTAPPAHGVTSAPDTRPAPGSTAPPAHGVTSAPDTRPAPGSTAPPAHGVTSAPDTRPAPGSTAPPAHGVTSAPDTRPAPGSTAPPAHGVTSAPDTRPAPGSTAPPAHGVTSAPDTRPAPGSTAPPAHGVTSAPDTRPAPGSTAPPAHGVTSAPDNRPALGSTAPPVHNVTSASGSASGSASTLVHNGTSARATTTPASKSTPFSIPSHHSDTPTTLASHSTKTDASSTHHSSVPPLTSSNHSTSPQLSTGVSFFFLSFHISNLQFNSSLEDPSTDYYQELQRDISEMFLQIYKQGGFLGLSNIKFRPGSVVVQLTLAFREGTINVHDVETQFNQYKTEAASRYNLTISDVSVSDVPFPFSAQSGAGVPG

## GCAGTTGATCCTTTGGATACCCTGG [mucin 1 aptamer]
  Kd: 0.135 nM
